Where a chain is given by its changes, count along the chain named. Names may count otherwise.
T1: EsCas13d, nuclease-dead (Eubacterium siraeum, UniProt B0MS50, R295A;H300A;R849A;H854A)
T1 sequence: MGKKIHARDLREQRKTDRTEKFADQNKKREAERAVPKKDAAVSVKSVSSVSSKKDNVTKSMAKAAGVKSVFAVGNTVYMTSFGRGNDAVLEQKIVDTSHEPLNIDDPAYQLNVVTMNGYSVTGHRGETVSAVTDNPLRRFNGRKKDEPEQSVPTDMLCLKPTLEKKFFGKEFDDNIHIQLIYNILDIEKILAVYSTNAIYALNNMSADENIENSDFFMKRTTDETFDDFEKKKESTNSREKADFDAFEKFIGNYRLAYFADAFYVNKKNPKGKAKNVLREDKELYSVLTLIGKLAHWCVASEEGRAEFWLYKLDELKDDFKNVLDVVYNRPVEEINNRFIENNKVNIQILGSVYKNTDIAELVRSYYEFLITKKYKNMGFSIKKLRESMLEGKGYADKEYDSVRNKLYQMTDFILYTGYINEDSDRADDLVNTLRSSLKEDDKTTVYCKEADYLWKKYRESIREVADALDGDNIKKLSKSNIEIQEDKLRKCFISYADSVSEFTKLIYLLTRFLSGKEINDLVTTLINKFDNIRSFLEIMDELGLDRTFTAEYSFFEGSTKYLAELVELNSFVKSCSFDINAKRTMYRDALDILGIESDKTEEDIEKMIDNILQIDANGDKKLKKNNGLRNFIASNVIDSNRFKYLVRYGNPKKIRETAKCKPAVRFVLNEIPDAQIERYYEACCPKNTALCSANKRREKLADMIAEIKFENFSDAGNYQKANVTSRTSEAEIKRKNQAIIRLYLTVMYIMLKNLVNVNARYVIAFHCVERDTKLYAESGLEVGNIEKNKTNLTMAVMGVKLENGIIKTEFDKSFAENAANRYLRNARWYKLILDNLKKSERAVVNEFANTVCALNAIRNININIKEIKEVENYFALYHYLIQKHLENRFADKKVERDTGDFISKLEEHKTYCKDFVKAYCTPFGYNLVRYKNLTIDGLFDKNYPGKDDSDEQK

B1: target 2 MT 5'PFS UCA 3'PFS AAA (mixed)
RNA 1: CACCCGUGCAAAAUUGCAGGGGUCUAAAACCUUCUCCAAAUUGUUUCAUCCU
RNA 2: GGGAAUGGAUCCACAUCUACGAAUUCUCAAGGAUGAAACAAUUUGGAGAAGAAAAGAUCGGAAGAGCACACGU
B2: target 2 MT 5'PFS CUC 3'PFS ACA (mixed)
RNA 1: B1 RNA 1
RNA 2: B1 RNA 2 with U27C, C28U, A29C, A53C
B3: target 2 MT 5'PFS GGU 3'PFS AAG (mixed)
RNA 1: B1 RNA 1
RNA 2: B1 RNA 2 with U27G, C28G, A29U, A54G
B4: target 2 MT 5'PFS CAC 3'PFS UCG (mixed)
RNA 1: B1 RNA 1
RNA 2: B1 RNA 2 with U27C, C28A, A29C, A52U, A53C, A54G
B5: target 2 MT 5'PFS CAC 3'PFS UCC (mixed)
RNA 1: B1 RNA 1
RNA 2: B1 RNA 2 with U27C, C28A, A29C, A52U, A53C, A54C
B6: target 2 MT 5'PFS CUC 3'PFS ACU (mixed)
RNA 1: B1 RNA 1
RNA 2: B1 RNA 2 with U27C, C28U, A29C, A53C, A54U
B7: target 2 MT 5'PFS GGU 3'PFS AAA (mixed)
RNA 1: B1 RNA 1
RNA 2: B1 RNA 2 with U27G, C28G, A29U
B8: target 2 MT 5'PFS CGG 3'PFS AGG (mixed)
RNA 1: B1 RNA 1
RNA 2: B1 RNA 2 with U27C, C28G, A29G, A53G, A54G
B9: target 2 MT 5'PFS CGG 3'PFS AGC (mixed)
RNA 1: B1 RNA 1
RNA 2: B1 RNA 2 with U27C, C28G, A29G, A53G, A54C
B10: target 2 MT 5'PFS UGG 3'PFS CCU (mixed)
RNA 1: B1 RNA 1
RNA 2: B1 RNA 2 with C28G, A29G, A52C, A53C, A54U
B11: target 2 MT 5'PFS GCU 3'PFS CUC (mixed)
RNA 1: B1 RNA 1
RNA 2: B1 RNA 2 with U27G, A29U, A52C, A53U, A54C
B12: target 2 MT 5'PFS UAG 3'PFS UCG (mixed)
RNA 1: B1 RNA 1
RNA 2: B1 RNA 2 with C28A, A29G, A52U, A53C, A54G
B13: target 2 MT 5'PFS CUC 3'PFS ACC (mixed)
RNA 1: B1 RNA 1
RNA 2: B1 RNA 2 with U27C, C28U, A29C, A53C, A54C
B14: target 2 MT 5'PFS UGG 3'PFS CCA (mixed)
RNA 1: B1 RNA 1
RNA 2: B1 RNA 2 with C28G, A29G, A52C, A53C
B15: target 2 MT 5'PFS CGG 3'PFS AGA (mixed)
RNA 1: B1 RNA 1
RNA 2: B1 RNA 2 with U27C, C28G, A29G, A53G
B16: target 2 MT 5'PFS CUC 3'PFS ACG (mixed)
RNA 1: B1 RNA 1
RNA 2: B1 RNA 2 with U27C, C28U, A29C, A53C, A54G
B17: target 2 MT 5'PFS GGU 3'PFS AAC (mixed)
RNA 1: B1 RNA 1
RNA 2: B1 RNA 2 with U27G, C28G, A29U, A54C
B18: target 2 MT 5'PFS ACC 3'PFS CCG (mixed)
RNA 1: B1 RNA 1
RNA 2: B1 RNA 2 with U27A, A29C, A52C, A53C, A54G
B19: target 2 MT 5'PFS CAC 3'PFS UCU (mixed)
RNA 1: B1 RNA 1
RNA 2: B1 RNA 2 with U27C, C28A, A29C, A52U, A53C, A54U
B20: target 2 MT 5'PFS AGG 3'PFS AAU (mixed)
RNA 1: B1 RNA 1
RNA 2: B1 RNA 2 with U27A, C28G, A29G, A54U
B21: target 2 MT 5'PFS UCU 3'PFS CAG (mixed)
RNA 1: B1 RNA 1
RNA 2: B1 RNA 2 with A29U, A52C, A54G
B22: target 2 MT 5'PFS UAU 3'PFS GCA (mixed)
RNA 1: B1 RNA 1
RNA 2: B1 RNA 2 with C28A, A29U, A52G, A53C
B23: target 2 MT 5'PFS UCU 3'PFS CAA (mixed)
RNA 1: B1 RNA 1
RNA 2: B1 RNA 2 with A29U, A52C
B24: target 2 MT 5'PFS GUA 3'PFS AGC (mixed)
RNA 1: B1 RNA 1
RNA 2: B1 RNA 2 with U27G, C28U, A53G, A54C
B25: target 2 MT 5'PFS GUA 3'PFS AGA (mixed)
RNA 1: B1 RNA 1
RNA 2: B1 RNA 2 with U27G, C28U, A53G
B26: target 2 MT 5'PFS CGC 3'PFS UAU (mixed)
RNA 1: B1 RNA 1
RNA 2: B1 RNA 2 with U27C, C28G, A29C, A52U, A54U
B27: target 2 MT 5'PFS AGG 3'PFS UAC (mixed)
RNA 1: B1 RNA 1
RNA 2: B1 RNA 2 with U27A, C28G, A29G, A52U, A54C
B28: target 2 MT 5'PFS UCA 3'PFS AAG (mixed)
RNA 1: B1 RNA 1
RNA 2: B1 RNA 2 with A54G
B29: target 2 MT 5'PFS UAG 3'PFS UUU (mixed)
RNA 1: B1 RNA 1
RNA 2: B1 RNA 2 with C28A, A29G, A52U, A53U, A54U
B30: target 2 MT 5'PFS GUA 3'PFS AGG (mixed)
RNA 1: B1 RNA 1
RNA 2: B1 RNA 2 with U27G, C28U, A53G, A54G
B31: target 2 MT 5'PFS UCA 3'PFS AAU (mixed)
RNA 1: B1 RNA 1
RNA 2: B1 RNA 2 with A54U
B32: target 2 MT 5'PFS AGG 3'PFS AAC (mixed)
RNA 1: B1 RNA 1
RNA 2: B1 RNA 2 with U27A, C28G, A29G, A54C
B33: target 2 MT 5'PFS CAC 3'PFS UCA (mixed)
RNA 1: B1 RNA 1
RNA 2: B1 RNA 2 with U27C, C28A, A29C, A52U, A53C
B34: target 2 MT 5'PFS GUG 3'PFS CUU (mixed)
RNA 1: B1 RNA 1
RNA 2: B1 RNA 2 with U27G, C28U, A29G, A52C, A53U, A54U
B35: target 1 C7A,A16G (mixed)
RNA 1: CACCCGUGCAAAAAUGCAGGGGUCUAAAACUGAGCGGAUAACCUCUCUAUGG
RNA 2: GGGAAUGGAUCCACAUCUACGAAUUCGUACCAUAGGGAGGUUAUACGCUCACCGAGAUCGGAAGAGCACACGU
B36: target 1 insG 3' of 7,insG 3' of 2 (mixed)
RNA 1: B35 RNA 1
RNA 2: GGGAAUGGAUCCACAUCUACGAAUUCGUACCAUAGAGAGGUUAUCGCGCUCGACCGAGAUCGGAAGAGCACACGU
B37: target 1 A20C,C22U (mixed)
RNA 1: B35 RNA 1
RNA 2: B35 RNA 2 with C30U, A32C, G36A, A45C
B38: target 1 C6G,U19C (mixed)
RNA 1: B35 RNA 1
RNA 2: B35 RNA 2 with U33C, G36A, A45C, C46G

Target: T1, EsCas13d, nuclease-dead
Test: crRNA (strand 1, pre-loaded); Mg2+; 40 mM Tris-HCl pH 7.5, 150 mM NaCl, 6 mM MgCl2, 1 mM DTT, 0.1% Tween-20, 0.2 mg/ml BSA; 25 C; 10 min per concentration, then washed
Settings: tags: His6-TwinStrep-SUMO cleaved; N-terminal SNAP kept (SNAP-Surface 488); label: 3' end held by stalled T7 RNA polymerase

Binder | Kd [nM]
B1 | 4.2 ± 0.9
B2 | 3.1 ± 1.4
B3 | 12.7 ± 1.2
B4 | 3.9 ± 0.8
B5 | 4.9 ± 0.7
B6 | 2.14 ± 0.28
B7 | 7.1 ± 1
B8 | 4.5 ± 0.5
B9 | 4.7 ± 0.9
B10 | 68 ± 33
B11 | 24 ± 8
B12 | 4.1 ± 0.5
B13 | 2.3 ± 0.4
B14 | 15.3 ± 3.1
B15 | 4.1 ± 0.7
B16 | 1.68 ± 0.18
B17 | 13.4 ± 1.4
B18 | 12 ± 5
B19 | 4.7 ± 0.6

Binder | Kd [nM]
B20 | 4.7 ± 0.9
B21 | 7.6 ± 1.1
B22 | ~70
B23 | 10.5 ± 2.1
B24 | 6.4 ± 0.6
B25 | 6.5 ± 0.8
B26 | 3.7 ± 0.4
B27 | 7.3 ± 1.2
B28 | 6.7 ± 1
B29 | 6.5 ± 0.7
B30 | 8.6 ± 0.6
B31 | 5.2 ± 0.7
B32 | 8.5 ± 1.7
B33 | 4.1 ± 0.6
B34 | 12.8 ± 1
B35 | 30 ± 1.9
B36 | 6.9 ± 0.4
B37 | 49 ± 6
B38 | 29.8 ± 2.8

From article PMC10786891, “Massively parallel profiling of RNA-targeting CRISPR-Cas13d”
